Source: article PMC5595295 (Acta Pharmaceutica Sinica. B, 2017)
Changes are numbered by the printed parent chain. Names and notes keep the numbering of the source.

B1: hA3G W127A-EYFP (natural protein, human, UniProt Q9HC16 1-384, looked up)
chain: MKPHFRNTVERMYRDTFSYNFYNRPILSRRNTVWLCYEVKTKGPSRPPLDAKIFRGQVYSELKYHPEMRFFHWFSKWRKLHRDQEYEVTWYISWSPCTKCTRDMATFLAEDPKVTLTIFVARLYYFADPDYQEALRSLCQKRDGPRATMKIMNYDEFQHCWSKFVYSQRELFEPWNNLPKYYILLHIMLGEILRHSMDPPTFTFNFNNEPWVRGRHETYLCYEVERMHNDTWVLLNQRRGFLCNQAPHKHGFLEGRHAELCFLDVIPFWKLDLDQDYRVTCFTSWSPCFSCAQEMAKFISKNKHVSLCIFTARIYDDQGRCQEGLRTLAEAGAKISIMTYSEFKHCWDTFVDHQGCPFQPWDGLDEHSQDLSGRLRAILQNQEN
B2: hA3G Y124A-EYFP (natural protein, human, UniProt Q9HC16 1-384, looked up)
chain: B1 chain with Y124A, A127W

Biological target: hA3G-HA (human, UniProt Q9HC16 1-384)
Assay: co-IP

Row | Binder | percent inhibition of binding to wild type hA3G (co-IP, band quantification)
1 | B1 | ~80%
2 | B2 | < 50%
